± gives the uncertainty stated by the source.
Experiment: self-splicing fitness, log relative to wild type (ln ratio); higher = more splicing; Tetrahymena group I intron in knt gene, E. coli kanamycin selection, DiMSum; sequences stand for … in CUCUCU…GGAGGGAAAAGUUAUCAGGCAUGCACCUGGUAGCUAGUCUUUAAACCAAUAGAUUGCAUCGGUUUAAAAGGCAAGACCGUCAAAUUGCGGGAAAGGGGUCAACAGCCGUUCAGUACCAAGUCUCAGGGGAAACUUUGAGAUGGCCUUGCAAAGGGUAUGGUAAUAAGCUGACGGACAUGGUCCUAACCACGCAGCCAAGUCCUAAGUCAACAGAUCUUCUGUUGAUAUGGAUGCAGUUCACAGACUAAAUGUCGGUCGGGGAAGAUGUAUUCUUCUCAUAAGAUAUAGUCGGACCUCUCCUUAAUGGGAGCUAGCGGAUGAAGUGAUGCAACACUGGAGCCGCUGGGAACUAAUUUGUAUGCGAAAGUAUAUUGAUUAGUUUUGGAGUACUCGUGGUCG
Outline: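 The eight P1ex-region nucleotides of an intron in the knt kanamycin-resistance gene on pET-22b(+) were all randomised and the library put into E. coli BL21(DE3). Six replicate transformations were grown overnight at 37°C or 30°C on LB agar with or without 25 μg/mL kanamycin, together with 100 μg/mL carbenicillin, 50 μM IPTG and 0.2% rhamnose. Colonies were pooled and amplicon-sequenced on an Illumina HiSeq 2500. Fitness from DiMSum is the error-weighted combination of wild-type-normalised replicate fold changes, kanamycin over none.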

Row | Sequence | self-splicing fitness (ln) (30 °C) | self-splicing fitness (ln) (37 °C)
1 | ACGAAGCAAUAUUACGAUAA | -1.62 ± 0.15 | -1.39 ± 0.14
2 | ACGAAGCAAUAUUACGAUCA | -1.08 ± 0.12 | -0.536 ± 0.12
3 | ACGAAGCAAUAUUACGAUUA | -1.36 ± 0.077 | -0.917 ± 0.072
4 | ACGAAGCAAUAUUACGCACG | -3.26 ± 0.18 | -2.22 ± 0.17
5 | ACGAAGCAAUAUUACGCCAU | -4.46 ± 0.39 | -3.02 ± 0.26
6 | ACGAAGCAAUAUUACGCGCA | -0.419 ± 0.068 | 0.542 ± 0.1
7 | ACGAAGCAAUAUUACGGCAU | -0.981 ± 0.1 | 0.219 ± 0.11
8 | ACGAAGCAAUAUUACGGCUG | -0.78 ± 0.052 | -0.0127 ± 0.084
9 | ACGAAGCAAUAUUACGGGAU | -3.47 ± 0.13 | -1.8 ± 0.14
10 | ACGAAGCAAUAUUACGGGGU | -3.47 ± 0.15 | -2.33 ± 0.17
11 | ACGAAGCAAUAUUACGUAAG | -2.37 ± 0.1 | -1.05 ± 0.12
12 | ACGAAGCAAUAUUACGUAAU | -2.57 ± 0.087 | -1.23 ± 0.088
13 | ACGAAGCAAUAUUACGUCAA | -3.35 ± 0.17 | -3.51 ± 0.22
14 | ACGAAGCAAUAUUACGUCAG | -3.43 ± 0.19 | -1.1 ± 0.12
15 | ACGAAGCAAUAUUACGUCUU | -2.32 ± 0.17 | -1.91 ± 0.16
16 | ACGAAGCAAUAUUACGUGCC | -1.6 ± 0.079 | -0.89 ± 0.1
17 | ACGCAGCAAUAUUACGAACG | -0.387 ± 0.076 | -0.234 ± 0.091
18 | ACGCAGCAAUAUUACGAAUG | -2.51 ± 0.086 | -1.2 ± 0.097
19 | ACGCAGCAAUAUUACGACAU | -0.318 ± 0.011 | 0.305 ± 0.032
20 | ACGCAGCAAUAUUACGACUA | -1.15 ± 0.072 | -0.183 ± 0.064
21 | ACGCAGCAAUAUUACGAUGA | -1.1 ± 0.064 | -0.521 ± 0.068
22 | ACGCAGCAAUAUUACGCAAA | -2.51 ± 0.13 | -1.77 ± 0.14
23 | ACGCAGCAAUAUUACGCACG | -1.8 ± 0.12 | -1.31 ± 0.12
24 | ACGCAGCAAUAUUACGCCAU | -2.86 ± 0.17 | -2.05 ± 0.17

Row | Sequence | self-splicing fitness (ln) (30 °C) | self-splicing fitness (ln) (37 °C)
25 | ACGCAGCAAUAUUACGCCCU | -0.193 ± 0.12 | 0.187 ± 0.12
26 | ACGCAGCAAUAUUACGCGCU | -2.24 ± 0.17 | -1.31 ± 0.14
27 | ACGCAGCAAUAUUACGCUCU | -0.517 ± 0.067 | 0.303 ± 0.076
28 | ACGCAGCAAUAUUACGCUUA | -0.737 ± 0.089 | -0.286 ± 0.099
29 | ACGCAGCAAUAUUACGGAUA | -3.47 ± 0.18 | -1.7 ± 0.12
30 | ACGCAGCAAUAUUACGGCAG | -1.22 ± 0.093 | -1.08 ± 0.15
31 | ACGCAGCAAUAUUACGGCAU | -0.55 ± 0.059 | 0.0845 ± 0.072
32 | ACGCAGCAAUAUUACGGUCC | -2.36 ± 0.14 | -1.01 ± 0.13
33 | ACGCAGCAAUAUUACGGUGU | -3.81 ± 0.14 | -2.29 ± 0.096
34 | ACGCAGCAAUAUUACGGUUA | -1.13 ± 0.077 | -1.04 ± 0.062
35 | ACGCAGCAAUAUUACGUAUA | -2.65 ± 0.14 | -2.54 ± 0.13
36 | ACGCAGCAAUAUUACGUUAA | -3.4 ± 0.31 | -2.88 ± 0.24
37 | ACGCAGCAAUAUUACGUUAC | -3.14 ± 0.15 | -3.27 ± 0.23
38 | ACGCAGCAAUAUUACGUUCG | -1.24 ± 0.059 | -0.442 ± 0.068
39 | ACGCAGCAAUAUUACGUUUG | -3.65 ± 0.2 | -2.69 ± 0.2
40 | ACGGAGCAAUAUUACGAACU | -0.565 ± 0.11 | -0.0683 ± 0.16
41 | ACGGAGCAAUAUUACGACAA | – | -1.73 ± 0.45
42 | ACGGAGCAAUAUUACGACAU | -1.947 ± 0.018 | -1.1 ± 0.035
43 | ACGGAGCAAUAUUACGACCG | -2.1 ± 0.17 | -1.78 ± 0.25
44 | ACGGAGCAAUAUUACGAGAU | -3.66 ± 0.21 | 0.0618 ± 0.16
45 | ACGGAGCAAUAUUACGAGGA | -2.89 ± 0.27 | -2.92 ± 0.43
46 | ACGGAGCAAUAUUACGAGGG | -3.45 ± 0.25 | -2.82 ± 0.32
47 | ACGGAGCAAUAUUACGAGGU | -2.12 ± 0.22 | -2.5 ± 0.29
48 | ACGGAGCAAUAUUACGAUGU | -3.19 ± 0.2 | -2.52 ± 0.27

Source: the supplement of paper PMC7877785
